{"source": "paper PMC3251568", "target": "c-Abl (UniProt P00519)", "test": "anti-c-Abl IP, FLAG-PCNA western", "conditions": "reference: wild-type FLAG-PCNA; sites Y211", "data": [{"substance": "PCNA (proliferating cell nuclear antigen) (from UniProt P12004) Y211F FLAG-PCNA", "values": [{"measurement": "binding against the reference", "value": "weaker"}]}]}
